Assay results as given in patent US20110263026, “Construction of Protein-Responsive shRNA/RNAi Control System Using RNP Motif” (JAPAN SCIENCE AND TECHNOLOGY AGENCY, published 2011).

B1: shRNA-GFP (ssRNA)
RNA: GGCAUCAAGGUGAACUUCAAGAUCCAGCAUAGGGAUCUUGAAGUUCACCUUGAUGCCAG
B2: shRNA-Box C/D-GFP (ssRNA)
RNA: GGCAUCAAGGUGAACUUCAGCUGACCCGAAAGGGCGUGAUGCUGAAGUUCACCUUGAUGCCAG
B3: shRNA-Box C/D-mut-GFP (ssRNA)
RNA: GGCAUCAAGGUGAACUUCAGCUGCCCGAAAGGGCGUCAUGCUGAAGUUCACCUUGAUGCCAG

Assays:
[1] = molecular target: T1, L7Ae (UniProt O29494 SEQ:21-139); assay: EMSA; 40 nM RNA, 80-640 nM L7Ae; sequence-specific binding stated for Box C/D only; settings: tags: His6 (pET-28b+, Ni-NTA); hairpin (shRNA)
Experimental: (§1) The binding between each shRNA and the protein was confirmed as follows: after dilution with a dialysis buffer to bring the protein concentration to concentrations 25 times the final concentrations of 80 to 640 nM, 2 μL of the protein solution with each concentration, 2 μL of 1 μM shRNA-Box C/D-GFP, 6 μL of ultrapure water, and 40 μL of Opti-MEM I (trademark, Invitrogen Corp.) were mixed and left standing at room temperature for 30 minutes to bind shRNA (40 nM) to L7Ae (80 nM, 160 nM, 320 nM, or 640 nM). shRNA-GFP and shRNA-Box C/D mut-GFP were bound to L7Ae in the same way. To each solution, 13 μL of 5× dye solution (0.25% BPB, 30% glycerol) was added and mixed, and 15 μL of this mixed solution was layered on a nondenaturing 15% polyacrylamide (1/30 bisacrylamide) gel and electrophoresed at 250 V at 4° C. for 50 minutes. After the electrophoresis, the gel was stained with SYBR Green for 15 minutes, and bands were confirmed using FLA-7000 (FUJI FILM).

[2] = molecular target: T1, L7Ae; assay: EMSA; 40 nM RNA, 80-640 nM L7Ae, Opti-MEM, room temperature; settings: tags: His6 (pET-28b+, Ni-NTA); hairpin (shRNA) with Box C/D kink-turn loop
Experimental: as §1

T1 sequence (O29494 whole entry): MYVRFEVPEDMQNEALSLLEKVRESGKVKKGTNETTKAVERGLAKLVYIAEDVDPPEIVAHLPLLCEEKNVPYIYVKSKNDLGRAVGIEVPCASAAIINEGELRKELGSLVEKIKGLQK

Row | Binder | binding result [1] | binding result [2]
1 | B1 | no binding | –
2 | B2 | – | binds
3 | B3 | no binding | –
